Assay results reported in patent US20260286413A1, “HYALURONAN SYNTHESIS, SECRETION AND LENGTH CONTROL” (UNIVERSITY OF VIRGINIA, priority 2023, published 2026).

B1: K218R: X1HAS1 mutant, Lys218 replaced with Arg (protein, UniProt P13563 1-588, looked up, variant K218R)
Hyaluronan synthase 1: MKEKAAETMEIPEGIPKDLEPKHPTLWRIIYYSFGVVLLATITAAYVAEFQVLKHEAILFSLGLYGLAMLLHLMMQSLFAFLEIRRVNKSELPCSFKKTVALTIAGYQENPEYLIKCLESCKYVKYPKDKLKIILVIDGNTEDDAYMMEMFKDVFHGEDVGTYVWKGNYHTVKKPEETNKGSCPEVSKPLNEDEGINMVEELVRNKRCVCIMQQWGGRREVMYTAFQAIGTSVDYVQVCDSDTKLDELATVEMVKVLESNDMYGAVGGDVRILNPYDSFISFMSSLRYWMAFNVERACQSYFDCVSCISGPLGMYRNNILQVFLEAWYRQKFLGTYCTLGDDRHLTNRVLSMGYRTKYTHKSRAFSETPSLYLRWLNQQTRWTKSYFREWLYNAQWWHKHHIWMTYESVVSFIFPFFITATVIRLIYAGTIWNVVWLLLCIQIMSLFKSIYACWLRGNFIMLLMSLYSMLYMTGLLPSKYFALLTLNKTGWGTSGRKKIVGNYMPILPLSIWAAVLCGGVGYSIYMDCQNDWSTPEKQKEMYHLLYGCVGYVMYWVIMAVMYWVWVKRCCRKRSQTVTLVHDIPDMCV
B2: R296A: X1HAS1 mutant, Arg296 replaced with Ala (protein, UniProt P13563 1-588, looked up, variant R296A)
Hyaluronan synthase 1: MKEKAAETMEIPEGIPKDLEPKHPTLWRIIYYSFGVVLLATITAAYVAEFQVLKHEAILFSLGLYGLAMLLHLMMQSLFAFLEIRRVNKSELPCSFKKTVALTIAGYQENPEYLIKCLESCKYVKYPKDKLKIILVIDGNTEDDAYMMEMFKDVFHGEDVGTYVWKGNYHTVKKPEETNKGSCPEVSKPLNEDEGINMVEELVRNKRCVCIMQQWGGKREVMYTAFQAIGTSVDYVQVCDSDTKLDELATVEMVKVLESNDMYGAVGGDVRILNPYDSFISFMSSLRYWMAFNVEAACQSYFDCVSCISGPLGMYRNNILQVFLEAWYRQKFLGTYCTLGDDRHLTNRVLSMGYRTKYTHKSRAFSETPSLYLRWLNQQTRWTKSYFREWLYNAQWWHKHHIWMTYESVVSFIFPFFITATVIRLIYAGTIWNVVWLLLCIQIMSLFKSIYACWLRGNFIMLLMSLYSMLYMTGLLPSKYFALLTLNKTGWGTSGRKKIVGNYMPILPLSIWAAVLCGGVGYSIYMDCQNDWSTPEKQKEMYHLLYGCVGYVMYWVIMAVMYWVWVKRCCRKRSQTVTLVHDIPDMCV
B3: H72F: X1HAS1 mutant, His72 replaced with Phe (protein, UniProt P13563 1-588, looked up, variant H72F)
Hyaluronan synthase 1: MKEKAAETMEIPEGIPKDLEPKHPTLWRIIYYSFGVVLLATITAAYVAEFQVLKHEAILFSLGLYGLAMLLFLMMQSLFAFLEIRRVNKSELPCSFKKTVALTIAGYQENPEYLIKCLESCKYVKYPKDKLKIILVIDGNTEDDAYMMEMFKDVFHGEDVGTYVWKGNYHTVKKPEETNKGSCPEVSKPLNEDEGINMVEELVRNKRCVCIMQQWGGKREVMYTAFQAIGTSVDYVQVCDSDTKLDELATVEMVKVLESNDMYGAVGGDVRILNPYDSFISFMSSLRYWMAFNVERACQSYFDCVSCISGPLGMYRNNILQVFLEAWYRQKFLGTYCTLGDDRHLTNRVLSMGYRTKYTHKSRAFSETPSLYLRWLNQQTRWTKSYFREWLYNAQWWHKHHIWMTYESVVSFIFPFFITATVIRLIYAGTIWNVVWLLLCIQIMSLFKSIYACWLRGNFIMLLMSLYSMLYMTGLLPSKYFALLTLNKTGWGTSGRKKIVGNYMPILPLSIWAAVLCGGVGYSIYMDCQNDWSTPEKQKEMYHLLYGCVGYVMYWVIMAVMYWVWVKRCCRKRSQTVTLVHDIPDMCV
B4: R287A: X1HAS1 mutant, Arg287 replaced with Ala (protein, UniProt P13563 1-588, looked up, variant R287A)
Hyaluronan synthase 1: MKEKAAETMEIPEGIPKDLEPKHPTLWRIIYYSFGVVLLATITAAYVAEFQVLKHEAILFSLGLYGLAMLLHLMMQSLFAFLEIRRVNKSELPCSFKKTVALTIAGYQENPEYLIKCLESCKYVKYPKDKLKIILVIDGNTEDDAYMMEMFKDVFHGEDVGTYVWKGNYHTVKKPEETNKGSCPEVSKPLNEDEGINMVEELVRNKRCVCIMQQWGGKREVMYTAFQAIGTSVDYVQVCDSDTKLDELATVEMVKVLESNDMYGAVGGDVRILNPYDSFISFMSSLAYWMAFNVERACQSYFDCVSCISGPLGMYRNNILQVFLEAWYRQKFLGTYCTLGDDRHLTNRVLSMGYRTKYTHKSRAFSETPSLYLRWLNQQTRWTKSYFREWLYNAQWWHKHHIWMTYESVVSFIFPFFITATVIRLIYAGTIWNVVWLLLCIQIMSLFKSIYACWLRGNFIMLLMSLYSMLYMTGLLPSKYFALLTLNKTGWGTSGRKKIVGNYMPILPLSIWAAVLCGGVGYSIYMDCQNDWSTPEKQKEMYHLLYGCVGYVMYWVIMAVMYWVWVKRCCRKRSQTVTLVHDIPDMCV
B5: K448R: X1HAS1 mutant, Lys448 replaced with Arg (protein, UniProt P13563 1-588, looked up, variant K448R)
Hyaluronan synthase 1: MKEKAAETMEIPEGIPKDLEPKHPTLWRIIYYSFGVVLLATITAAYVAEFQVLKHEAILFSLGLYGLAMLLHLMMQSLFAFLEIRRVNKSELPCSFKKTVALTIAGYQENPEYLIKCLESCKYVKYPKDKLKIILVIDGNTEDDAYMMEMFKDVFHGEDVGTYVWKGNYHTVKKPEETNKGSCPEVSKPLNEDEGINMVEELVRNKRCVCIMQQWGGKREVMYTAFQAIGTSVDYVQVCDSDTKLDELATVEMVKVLESNDMYGAVGGDVRILNPYDSFISFMSSLRYWMAFNVERACQSYFDCVSCISGPLGMYRNNILQVFLEAWYRQKFLGTYCTLGDDRHLTNRVLSMGYRTKYTHKSRAFSETPSLYLRWLNQQTRWTKSYFREWLYNAQWWHKHHIWMTYESVVSFIFPFFITATVIRLIYAGTIWNVVWLLLCIQIMSLFRSIYACWLRGNFIMLLMSLYSMLYMTGLLPSKYFALLTLNKTGWGTSGRKKIVGNYMPILPLSIWAAVLCGGVGYSIYMDCQNDWSTPEKQKEMYHLLYGCVGYVMYWVIMAVMYWVWVKRCCRKRSQTVTLVHDIPDMCV
B6: H72A: X1HAS1 mutant, His72 replaced with Ala (protein, UniProt P13563 1-588, looked up, variant H72A)
Hyaluronan synthase 1: MKEKAAETMEIPEGIPKDLEPKHPTLWRIIYYSFGVVLLATITAAYVAEFQVLKHEAILFSLGLYGLAMLLALMMQSLFAFLEIRRVNKSELPCSFKKTVALTIAGYQENPEYLIKCLESCKYVKYPKDKLKIILVIDGNTEDDAYMMEMFKDVFHGEDVGTYVWKGNYHTVKKPEETNKGSCPEVSKPLNEDEGINMVEELVRNKRCVCIMQQWGGKREVMYTAFQAIGTSVDYVQVCDSDTKLDELATVEMVKVLESNDMYGAVGGDVRILNPYDSFISFMSSLRYWMAFNVERACQSYFDCVSCISGPLGMYRNNILQVFLEAWYRQKFLGTYCTLGDDRHLTNRVLSMGYRTKYTHKSRAFSETPSLYLRWLNQQTRWTKSYFREWLYNAQWWHKHHIWMTYESVVSFIFPFFITATVIRLIYAGTIWNVVWLLLCIQIMSLFKSIYACWLRGNFIMLLMSLYSMLYMTGLLPSKYFALLTLNKTGWGTSGRKKIVGNYMPILPLSIWAAVLCGGVGYSIYMDCQNDWSTPEKQKEMYHLLYGCVGYVMYWVIMAVMYWVWVKRCCRKRSQTVTLVHDIPDMCV
B7: K448A: X1HAS1 mutant, Lys448 replaced with Ala (protein, UniProt P13563 1-588, looked up, variant K448A)
Hyaluronan synthase 1: MKEKAAETMEIPEGIPKDLEPKHPTLWRIIYYSFGVVLLATITAAYVAEFQVLKHEAILFSLGLYGLAMLLHLMMQSLFAFLEIRRVNKSELPCSFKKTVALTIAGYQENPEYLIKCLESCKYVKYPKDKLKIILVIDGNTEDDAYMMEMFKDVFHGEDVGTYVWKGNYHTVKKPEETNKGSCPEVSKPLNEDEGINMVEELVRNKRCVCIMQQWGGKREVMYTAFQAIGTSVDYVQVCDSDTKLDELATVEMVKVLESNDMYGAVGGDVRILNPYDSFISFMSSLRYWMAFNVERACQSYFDCVSCISGPLGMYRNNILQVFLEAWYRQKFLGTYCTLGDDRHLTNRVLSMGYRTKYTHKSRAFSETPSLYLRWLNQQTRWTKSYFREWLYNAQWWHKHHIWMTYESVVSFIFPFFITATVIRLIYAGTIWNVVWLLLCIQIMSLFASIYACWLRGNFIMLLMSLYSMLYMTGLLPSKYFALLTLNKTGWGTSGRKKIVGNYMPILPLSIWAAVLCGGVGYSIYMDCQNDWSTPEKQKEMYHLLYGCVGYVMYWVIMAVMYWVWVKRCCRKRSQTVTLVHDIPDMCV

Columns and labels:
X1HAS1 [1] = experiment: Electrophoretic HA size determination (agarose gel, Stains-all) of in vitro synthesized HA; type: biochemical, Xenopus laevis; conditions: for HA product versus WT: short and long reactions (1 h or 8 h), not distinguished; for HA product versus WT, long reaction: 8 h synthesis reaction
Description: To assess the size of HA synthesized by X1HAS1, similar reaction conditions were applied to the ones described above. […] […] Controls were carried out by digesting the synthesized polymers with hyaluronidase. Synthesis reactions were mixed with SDS-PAGE loading dye and applied to a 1% agarose gel (Ultra-pure agarose, Invitrogen) casted in an Owl B2 system (ThermoFisher). […] After the run, the gel was equilibrated in 50% ethanol for 1.5 h and subjected to staining in 0.05% Stains-all (Sigma) in 50% ethanol overnight under light-protection. Post-staining background was reduced by soaking the gel in 20% ethanol for 3-7 days in the dark. The migration of the synthesized HA species was compared to HA standards from Streptococcus equi (Sigma), as well as enzymatically generated ladders: HA LoLadder and HA HiLadder (Hyalose).

X1HAS1 [2] = experiment: Substrate turnover rate quantification (UDP release, enzyme-coupled assay); type: biochemical, Xenopus laevis; conditions: UDP release; for substrate turnover rate / catalytic rate relative to WT: normalized to WT
Description: UDP release during HA synthesis was quantified using an enzyme-coupled assay as previously described (10, 13). Depletion of NADH was monitored at 340 nm every 60 s for 3 hours at 37° C. in a SpectraMax instrument. The raw data was processed in MS Excel and a linear phase of each reaction was determined. The rate of NADH depletion was converted to pmoles of UDP released using a UDP standardized plot (FIG. S1C) for Michaelis-Menten constant determination using GraphPad Prism. For substrate turnover rate quantification of X1HAS1 mutants, pmoles of released UDP were converted to the number of corresponding substrate turnovers per molecule of X1HAS1, per minute. Data is presented relative to wild type activity. All experiments were performed in four to eight replicates and error bars represent standard deviation from the means.
HAS transfers the UDP-activated glycosyl unit (the donor sugar) to the non-reducing end of the nascent HA polymer (the acceptor sugar). This reaction generates UDP and elongated HA as reaction products (FIG. 1A). Catalytic activity can be assessed by monitoring the release of UDP in an enzyme-coupled reaction, as previously described (10, 13), or quantifying HA, either radiometrically or by dye staining following electrophoresis.

Row | Molecule | HA product versus WT (X1HAS1 [1]) | substrate turnover / catalytic activity compared to WT (X1HAS1 [2]) | substrate turnover rate / catalytic rate relative to WT (X1HAS1 [2]) | HA product versus WT, short reaction (X1HAS1 [1]) | HA product versus WT, long reaction (X1HAS1 [1]) | HA size difference versus WT product (X1HAS1 [1]; from differences in electrophoretic mobility)
1 | B1 | abolishes | abolishes | – | – | – | –
2 | B2 | short HA oligosaccharide species | – | ~30% | – | – | –
3 | B3 | – | – | about 10% | reduced length | equivalent to or exceeding the HA length obtained from the WT enzyme | –
4 | B4 | short HA oligosaccharide species | – | about 15% | – | – | –
5 | B5 | – | – | 50-75% | reduced length | equivalent to or exceeding the HA length obtained from the WT enzyme | up to 0.5 MDa
6 | B6 | – | – | 50-75% | reduced length | – | –
7 | B7 | – | – | 50-75% | reduced length | – | –
